Measurements reported in patent publication US20240100176A1, “HUMAN INTERLEUKIN-4 RECEPTOR ALPHA ANTIBODY GLUCOCORTICOID CONJUGATES” (Eli Lilly and Company, priority 2022, published 2024).
Read-outs that look alike come from different tables or passages of the source.

How the values were obtained:
[1] = target: human FcγRI (CD64) extracellular domain (human) (UniProt P12314); test: SPR (Biacore), antibody captured on protein A, FcγR ECD as analyte, 25 °C
[2] = target: human FcγRI (CD64) extracellular domain (human) (UniProt P12314); test: as above; remark: listed apart in the source
[3] = target: human FcγRIIA_131R (CD32a) extracellular domain (human) (UniProt P12318); test: SPR (Biacore), antibody captured on protein A, FcγR ECD as analyte, steady state, 25 °C
[4] = target: human FcγRIIIA_158F (CD16a) extracellular domain (human) (UniProt P08637); test: as above
[5] = target: human FcγRIIb (CD32b) extracellular domain (human) (UniProt P31994); test: as above
[6] = target: human FcγRIIA_131H (CD32a) extracellular domain (human) (UniProt P12318); test: as above
[7] = target: human FcγRIIA_131R (CD32a) extracellular domain (human) (UniProt P12318); test: as above; remark: listed apart in the source
[8] = target: human FcγRIIIA_158F (CD16a) extracellular domain (human) (UniProt P08637); test: as above; remark: listed apart in the source
[9] = target: human FcγRIIb (CD32b) extracellular domain (human) (UniProt P31994); test: as above; remark: listed apart in the source
[10] = target: human FcγRIIA_131H (CD32a) extracellular domain (human) (UniProt P12318); test: as above; remark: listed apart in the source
[11] = target: human FcγRIIIA_158V (CD16a) extracellular domain (human) (UniProt P08637); test: as above
Sequence of human FcγRIIIA_158V (CD16a) extracellular domain (human) (P08637 17-208 F176V): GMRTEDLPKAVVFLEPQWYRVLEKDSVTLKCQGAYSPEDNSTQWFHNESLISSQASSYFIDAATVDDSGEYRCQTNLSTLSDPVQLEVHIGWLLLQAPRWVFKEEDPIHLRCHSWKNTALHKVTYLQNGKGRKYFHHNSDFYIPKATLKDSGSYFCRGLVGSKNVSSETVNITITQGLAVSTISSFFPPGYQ

Sequence of human FcγRI (CD64) extracellular domain (human) (P12314 16-292): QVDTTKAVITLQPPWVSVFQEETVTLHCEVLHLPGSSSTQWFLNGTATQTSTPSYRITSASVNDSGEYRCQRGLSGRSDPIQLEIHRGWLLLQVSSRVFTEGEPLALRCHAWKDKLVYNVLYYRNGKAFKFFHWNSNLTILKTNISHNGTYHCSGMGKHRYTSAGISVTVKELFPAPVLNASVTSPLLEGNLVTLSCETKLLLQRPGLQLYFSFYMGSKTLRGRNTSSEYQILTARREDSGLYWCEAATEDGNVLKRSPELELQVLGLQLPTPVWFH
Sequence of human FcγRIIA_131H (CD32a) extracellular domain (human) (P12318 34-217): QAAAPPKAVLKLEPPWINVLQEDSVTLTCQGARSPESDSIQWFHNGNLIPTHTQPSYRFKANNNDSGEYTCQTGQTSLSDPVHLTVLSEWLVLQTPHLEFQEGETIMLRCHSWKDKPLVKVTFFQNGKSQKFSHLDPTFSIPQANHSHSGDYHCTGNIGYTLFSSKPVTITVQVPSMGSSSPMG
Sequence of human FcγRIIA_131R (CD32a) extracellular domain (human) (P12318 34-217 H167R): as the sequence (P12318 34-217) above, with H134R counted along it
Sequence of human FcγRIIb (CD32b) extracellular domain (human) (P31994 43-217): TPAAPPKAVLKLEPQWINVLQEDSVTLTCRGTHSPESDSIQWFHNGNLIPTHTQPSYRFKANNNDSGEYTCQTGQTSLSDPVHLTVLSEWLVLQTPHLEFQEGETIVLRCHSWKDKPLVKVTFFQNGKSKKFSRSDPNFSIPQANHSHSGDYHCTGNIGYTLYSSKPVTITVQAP
Sequence of human FcγRIIIA_158F (CD16a) extracellular domain (human) (P08637 17-208): as the sequence (P08637 17-208 F176V) above, with V160F counted along it

Hu IgG1 control (antibody)
Kd [1]: 0.0521 nM | Kd [2]: 0.0559 nM | Kd [3]: 740 nM | Kd [4]: 1290 nM | Kd [5]: 3110 nM | Kd [6]: 680 nM | Kd [7]: 760 nM | Kd [8]: 910 nM | Kd [9]: 3750 nM | Kd [10]: 690 nM

Hu IgG4 SP control (antibody)
Kd [1]: 0.419 nM | Kd [3]: 2310 nM | Kd [11]: 7350 nM | Kd [5]: 2780 nM | Kd [6]: 5310 nM
